We go through 22 sequences from the DeepSol protein solubility set.

This data set can be described thus: soluble on expression in E. coli; label from the status in PepcDB or PDB records.
Take “MKIVMKISEVRGEILLAAADADIVGKKFREKNLHIEVYPSFYGEVRVTDEMFISSMNICTIANLVGEYTIGVAIDAGFIEKDNILYIQKVPYAQYAKIFQ”: the “soluble on expression in E. coli” value was “soluble”.
With “IRSIWENNGFGLMSSKTMTDFDYWISDFEKIGASQKEAEQLIVKAIEIAIDANARNYNYINAILKDWEQRGFKSVEEREA” the entry was “soluble”; with “MPRASISDTIPMTMASIDAGSVRFTARADKRHLNPLGGVHGGFAATVLDSVTGCAIHSILEAGVGYGTVDLSVKRVKAVPEDTPLVAEGRVLHVPCAIGSQRADLMLAPPRLGRDRRCPAGLEHHHHHH”, “not soluble”.
On to “MSLNQPLLSVNNLTHLYAPGKGFSDVSFDLWPGEVLGIVGESGSGKTTLLKSISARLTPQQGEIHYENRSLYAMSEADRRRLLRTEWGVVHQHPLDGLRRQVSAGGNIGERLMATGARHYGDIRATAQKWLEEVEIPANRIDDLPTTFSGGMQQRLQIARNLVTHPKLVFMDEPTGGLDVSVQARLLDLLRGLVVELNLAVVIVTHDLGVARLLADRLLVMKQGQVVESGLTDRVLDDPHHPYTQLLVSSVLEGHHHHHH”, for which the “soluble on expression in E. coli” value is reported as “soluble”.
With “MSFSLEMPQMLPAPRDCYAVPGKPGHSEPLTVVGWEHMDLKLFYPSALFSSWSIRTALYPLAVLRSQLQLQKQNTVYRSTFHAYSDISKREGFRGLYRGFWITVPQIGCSFIYSTIFEKCRAVLHEQGIQSVGGVAAVAGGLASFATQSIFVPTDIIAQYMMIYKNTDKLTAGHDKSVIDGVRNHVKNGSGLGTSVIKAIYKTDGILGFYRGFWASTAVYVPQMLTFWPSYYWMLGLFNKVPYRTLHPATNRSLLFDQAVAATLGGVISTVATNPMELFRVRLQVHRGSYSKTLETMLRDEKTAVFTKGLTPRIIANSMYSGLVVVGYEIVKRLCAKEEYKHRVKW”, the “soluble on expression in E. coli” value is listed as “not soluble”.
With “MGSDKIHHHHHHMEHIFQAHSPGEAGEILQQNWEHWLMTTARWREILTYDPRPATGCSPKEILWTKNKAQLYHYQCSSERRYRTPVLMIYALINRPYVLDLTPGSSLVEYLVNEGFDVYLLDWGEFEWEDRDITYADLVYDYIATAARKVARSAGSKEISIIGYCMGGTMSTLYAALFDRPVLKNLVYLAAPIDFNRAGTYDVWLKAPGYDPDRIADTMELVPKSFIDWGTRMLNPLANYWGTYTRLWKTLEEGKSVHFWKVLNKWSSDNINFPGGAYRDWIRDFYQGNKLIKNQVVLRGKRVQLQRIKANILAMVGLRDHIVMPHQTAAALTYLGGNDKTYMEFPVGHGGLVLGETARMRVFPEIAYWLGERSEELSEE” the entry was “not soluble”; with “MSEIINNREYRQKVLKELIRELHDGKSVEEIKPRFEELIKGISPAEISEMEQALIMEGMPVEEIQRLCDVHAAVFKGSIEEIHRPQKPEEVPGHPIHTFKLENAEIRKLVDNEIRPQLELYKNGDTAESLKKLREAFQKLWEIDKHYSRKENLLFPYLEKYGITAPPKVMWGVDDEIRADIKEINNKLSANAQNQNIPLEKAEEAVNRVIEMIFKEENILFPMALETLTEDEWAEIARASDEIGYCMITPEAEWKPARVDVVEKTQKEGVKSQENQGFVEFDAGCLTTEEINAMLNTLPIDITFVDKNDTVKYFTQGKERIFARPKTIIGRKVQNCHPPASVHIVEKIIEDLKSGKKDHEDFWIKMGEKYVYIRYFAVRNEKGEYLGTIEVTQDIAPIQKITGEKRLLSDA”, “soluble”; with “ASVLTVKDIARKKPAAVFKKSEHDGPGSAMQILMDHDRDYGIVVDKSSRYSGIVSLDSLRLAHKENRSLASAQLEDDVTLQPDQSVNDILGVVASVPYAVPVVDEQGTYFGVVTKSRLLQTLDKD”, “soluble”.
Consider “MGSDKIHHHHHHMSTKPFVYQDPFPLGKDETKYRKIEGSEKHVTVEQFAGKEVLRVCPEALSILANEAMRDVSFLLRPEHNESVAKILRDPEASMNDKGVALAFLRNAEISANFELPICQDTGTATVIAKKGQQVWTGGKDEEYLSKGVYKTYTEENLRYSQTVALNMYDEINTGTNLPAQVEIQAVDGDAYKFLFMAKGGGSANKTMLFQETKALLTPEKLEKFLVDKMKYLGTAACPPYHIAVVVGGCSADQCMKTVKLASAKYLDALPTQGNEHGQAFRDVELEEKLLQAAYKLGIGAQFGGKYFAHDVRVIRLPRHGASCPVGMAVSCSADRNIKAKITRDGLFVEELDRNPGRLIPEQYRGKHEHGVKIDLNRPMKEILAELSKYPVATPLLLNGTIVVGRDIAHAKFKEIIDAGKPVPEYLLNHPIYYAGPAKTPAGKPSGSFGPTTAGRMDSYVDLLQSKGASMIMIAKGNRSQQVTDACQKYGGFYLGSIGGPAAVLAEENIKKVECIDFPELGMEAVWKIEVENFPAFILVDDKGNDFFKQLGL”, for which the “soluble on expression in E. coli” value is reported as “not soluble”.
“MSLNSSQIQSVNVELFNVPLDEVLNDAKHGDHTHFELILCTITCTDGTQGVGYTYTGGKGGRAIYSLLNDELKPFLMGKDASCINHLWEEMQYHLHYVGRGGLVSFAISAVDIALWDIHCKVLNQPLWKVAGGCSDRVNCYAGGIDLNFSTEKLLGNIQGYLDCGFEAVKIKVGKEDYREDVARVAAVRNLIGPDAIFMVDANYSLTVNKAIKFAQAIEQYDITWFEEPTIPDDFAGFAHIASKINIPLAMGENLHTIYEFNQAISQAKLGFLQPDASNIGGITGWLTVAQMGYANNLPICSHGMHELHVSLMASQPNAGYLEVHSFPIDRYTTHPLKLENGKAVAPSTPGVGVEFKTELLLPYLVKHSEGHHHHHH”: the “soluble on expression in E. coli” value is “soluble”.
With “MSLSENPGATAQILSYNHVLSQLNREKTDVTEAKSLLNTAETSLSSMSTSMNRVNALVLQAINGTSDKDNMSQSAEEIKGLLDVLISVANSEDDGRYVFSGSSTSVKPFTTDKTTGEIIYNGTTENKKFRVTDTLEVEVFHDGSAMTDVFNNIQKIVDAMKSGDKDALSALQETNSKNIEIITNSMTNIGGQKNGVTAYDNVLSSKIVDFSERKSNVEEVNMPEAVSNLNKTSIAYQAALQSSVMVQKLSILNYMEGHHHHHH” the entry was “soluble”; with “MSLNDSRLLPVGSSPLEVAAARACAEIERTPVNIRALWNPDTCPENLLPWLAWAFSVDRWDENWPEGTKRAVIRDAYFIHCHKGTIGAIRRVVEPLGYVINVTEWWESSDPPGTFRLDIGVLESGITEEMYFEMERLIADAKPASRHLTGLNIVQDIPGYLYTGGVSCDGDIITVYPGEGHHHHHH”, “not soluble”.
Take “MAKKVKVITDPEVIKVMLEDTRRKILKLLRNKEMTISQLSEILGKTPQTIYHHIEKLKEAGLVEVKRTEMKGNLVEKYYGRTADVFYINLYLGDEELRYIARSRLKTKIDIFKRLGYQFEENELLNIMDRMSQKEFDATVRISKYIEEKEDALKDFSNEDIIHAIEWLSTAELARDEEYLELLKRLGSILKR”: the “soluble on expression in E. coli” value was “soluble”.
Turning to “MKSSSPISSLTTIISTGTNLGSGTDDDIYFGIHLNNGQKKEWLLDKETYNDFENGATDEYYLYINDMDFLPTMVDKVWVRKNSTGSFAGNWFFKALRIDANGNDVLSVSPNEWITDSNSQAEFNSDWSSVTNLTDPEFLEHHHHHH”, the “soluble on expression in E. coli” value is “soluble”.
With “MKEIWLLAESESWDEAKEMLKDAIEIGFDGALVRRDFLERAEKLGRMKIVPIEDAVVKISSAEDQERALQREVVVLKFEDWKVIPLENIVAMKKSGKVIAAVDTIEDAKLALTTLERGADGIAVSGDRETLRKFYEVVKEEGERVELVRARVKEIRPLGVGERVCIDTVTLMTPGEGMLVGNQASFMFLVASESEESEYVASRPFRVNAGSVNAYLKVGDKTRYLAELKAGDEVEVVKFDGAVRKSYVGRVKIERRPLILIRAEVDGVEGSVILQNAETIKLVAPDGKHVSVAELKPGDEILVWLGKKARHFGVEVDEFIVER” the entry was “not soluble”; with “MIIPEYGRTLTPEEWRPVVDEMLEATHIIFTTHENSDGDGLGSQVALALALKALGKEVAIFNPTEVPPNYLFLKELHEINLFRDRDEESMQEFFLADLLVVLDANLHDRIGRLWPHVEFARQMSRLKVLCIDHHLEPEDFADITVCETYASSTGELVCDLVTALELRTGQQLFTPEVASALYAAIMTDTGSFRFPKTTPYTYRLAGMLVEKGADPELVYDRIYNAL”, “not soluble”.
With “MFLTKVSLLDHPESLPGYLSSLAIVEYLHEQPLEFRAPITVITGENGVGKSTLVEALAVGMRLNPSGGSRHANFGREGDIVSSLHQSLKLVRRENPRDAFFFRGETMYNVASYYEELMGEKNMHDLHKMSHGESVFAVIDRRFNNQGFFVLDEPEAGLSMLRQLELLGKLGNLARGGAQIIMATHSPILLAIPGAEILEITSSGVAKVNFEDAEAVRAAREFVADPRGTAAFLTAEEDHQ”, the “soluble on expression in E. coli” value is “soluble”.
Turning to “MAHHHHHHMSVGKPITRDSSKQLWRHIKSSGEEELTYTHNPYDDSPNRRKEREKSLNVCRHYAEGRCNRGSTCRFHHETRHNIIVTPHVTPKFSSIAPLKGLPTSPLGAYLSSPPNRSCNGCLLSPTHHNNSMSYNSSTNSSMKILSESSSTIPHLQLPESLSTHCRSSTYVASGMNGEQPPHDVLILSSSLGSLNVGDHVSRNNGGFLLTAQQR”, the “soluble on expression in E. coli” value is given as “not soluble”.
As to “MKYVIGIDGGGSKTHMKISTLDYKVLLEVFKGPSNINSSTKEEVKRVLQELIMEGLGKLGQSLEECSAICIGTAGADRTEDKSIIEDMIRSLGYMGKIIVVNDAEIALAGGIEKREGIIVISGTGSICYGRNKEGRSARSGGWGHIIGDEGSGYDIGIKAIKAALKSFDKRGEKTILEGDILDFLKLKSHEDLINYIYRSGVTKKEIASLTRVVNSAYIKGDLVSKRILKEAARELFLSVKAVVEVLSMQNKKVVLTTAGGVINNINYLYDEFRKFLNLNYPKVKIISMKNDSAFGAVIIARSECDMAGDPLEHHHHHH”, the “soluble on expression in E. coli” value is listed as “not soluble”.
With “SNAMDIVSVALQRYSTKAFDPSKKLTAEEADKIKTLLQYSPSSTNSQPWHFIVASTEEGKARVAKSAAGNYTFNERKMLDASHVVVFCAKTAMDDAWLERVVDQEDADGRFATPEAKAANDKGRRFFADMHRVSLKDDHQWMAKQVYLNVGNFLLGVAAMGLDAVPIEGFDAEVLDAEFGLKEKGYTSLVVVPVGHHSVEDFNAGLPKSRLPLETTLTEV” the entry was “soluble”.
With “MGSDKIHHHHHHMGIKIPNMKPNYSLDDMRCFCMVAQYGSFKQAAVALQMPLSTLSRRIAKLEQDLALRLFNRDAHRVQLTFAGQRYYRRSAPIFDELDNVAACLQQDRNEAKGTIRISAPINFSVQVLVHHFNAFMRQYPDIELDLKLSNQTIDIDEEAMDLAFRIGHHSATHWIGRQLTNIRFAICGPANLDVSHIKAPADLAGLPTVLCSPMLTWSLQHIHSGEKQAYTATDNIRLKVDDMSLLTEVIAGGIGVGFIPDYHAQPLLESGKIQHILPAWSNQARGCEMLYRDRENIPYRVRLFIDFMLQRFKSNDGVM” the entry was “not soluble”; with “MSLINDLRTVPAALDRLVRQLPDHTALIAEDRRFTSTELRDAVYGAAAALIALGVEPADRVAIWSPNTWHWVVACLAIHHAGAAVVPLNTRYTATEATDILDRAGAPVLFAAGLFLGADRAAGLDRAALPALRHVVRVPVEADDGTWDEFIATGAGALDAVAARAAAVAPQDVSDILFTSGTTGRSKGVLCAHRQSLSASASWAANGKITSDDRYLCINPFFHNFGYKAGILACLQTGATLIPHVTFDPLHALRAIERHRITVLPGPPTIYQSLLDHPARKDFDLSSLRFAVTGAATVPVVLVERMQSELDIDIVLTAYGLTEANGMGTMCRPEDDAVTVATTCGRPFADFELRIADDGEVLLRGPNVMVGYLDDTEATAAAIDADGWLHTGDIGAVDQAGNLRITDRLKDMYICGGFNVYPAEVEQVLARMDGVADAAVIGVPDQRLGEVGRAFVVARPGTGLDEASVIAYTREHLANFKTPRSVRFVDVLPRNAAGKVSKPQLRELGEGHHHHHH”, “not soluble”.
